# What was measured:
# Format in all cases: cell-based
# LNCaP cells [1] = test: Apoptosense assay (M30 ELISA, cleaved cytokeratin 18)
# Description: LNCaP were obtained from American Type Culture Collection (Rockville, Md.) and LNCaP C4-2 cells were purchased from Urocor Inc., Oklahoma City, Okla. Cells were grown in RPMI 1640 medium supplemented with 10% (LNCaP) or 5% (LNCaP C4-2) fetal bovine serum (Hyclone, Logan, Utah) and grown in the presence of 5% CO2 at 37° C. Cells were treated with 10 μM Mifepristone (Sigma, St. Louis, Mo.) for three days or with increasing concentrations (from 200 ng/ml to 600 ng/ml) of TRAIL (Biomol Research Laboratories, Inc., Plymouth Meetings, Pa.) for varying time intervals 2, 4, 6, 8, 16, 20 and 24 hours (hr). Thus, for treatment with Mifepristone, cells were treated with Mifepristone for three days and then some cells treated (without washing) with TRAIL for indicated periods. Upon completion of the experiment, cells were harvested, and total proteins, cytosol or mitochondrial fractions were isolated as described below. At least three experiments were conducted with a minimum of four plates per treatment per experiment. Two methods were used to measure induction of apoptosis by drug treatment: the MTT assay and the Apoptosense assay. The MTT assay measures mitochondrial enzyme activity and is indicative of the number of surviving cells. […] Cells were plated in petri dishes and after completion of the treatment, cells were harvested and total protein extracted as described below. […] Color was developed by adding tetramethylbenzidine solution and the optical density of the bound antibody was determined at 450 nm on a Spectra MAX 340 microplate reader (Molecular Devices, Menlo Park, Calif.). Standard solution supplied by the supplier was used for generating standard curves.
# LNCaP C4-2 cells = test: Western blotting of death receptors, caspases, Bid, cytochrome c, Akt; conditions: LNCaP C4-2; for DR4 levels: FIG. 2B
# Description: (§1) LNCaP were obtained from American Type Culture Collection (Rockville, Md.) and LNCaP C4-2 cells were purchased from Urocor Inc., Oklahoma City, Okla. Cells were grown in RPMI 1640 medium supplemented with 10% (LNCaP) or 5% (LNCaP C4-2) fetal bovine serum (Hyclone, Logan, Utah) and grown in the presence of 5% CO2 at 37° C. Cells were treated with 10 μM Mifepristone (Sigma, St. Louis, Mo.) for three days or with increasing concentrations (from 200 ng/ml to 600 ng/ml) of TRAIL (Biomol Research Laboratories, Inc., Plymouth Meetings, Pa.) for varying time intervals 2, 4, 6, 8, 16, 20 and 24 hours (hr). Thus, for treatment with Mifepristone, cells were treated with Mifepristone for three days and then some cells treated (without washing) with TRAIL for indicated periods. Upon completion of the experiment, cells were harvested, and total proteins, cytosol or mitochondrial fractions were isolated as described below. At least three experiments were conducted with a minimum of four plates per treatment per experiment.
# (§2) For experiments using inhibitors, the cells were pre-treated with increasing concentrations of the inhibitors (10 μM to 100 μM) for one hr and then with TRAIL. Caspase-8-specific (Z-IETD-FMK) and caspase-9-specific ([…]) inhibitors were purchased from Enzyme Systems Products, Livermore, Calif. The inhibitors were dissolved in DMSO; to limit cellular toxicity, care was taken not to exceed 0.2% DMSO in the culture medium. Appropriate controls included vehicle treated cells with or without the inhibitors.
# (§3) Cells were harvested by trypsinization, washed in 1×PBS and cell pellets resuspended in lysis buffer (100 mM Tris-HCl pH 8.0, 0.1% Triton X 100 and protease inhibitor cocktail from Roche Diagnostic Corporation, Indianapolis, Ind.). Cells were incubated over ice for 30 min and centrifuged at 10,000 g at 4° C. for 10 min. The supernatant was collected and the protein concentration estimated using Bio-Rad protein reagent (Bio-Rad Laboratories, Hercules, Calif.).
# (§4) Proteins (50 μg, unless stated otherwise) were separated on NuPAGE 10% Bis-Tris gels (Novex pre-cast mini gels, InVitrogen, Carlsbad, Calif.) at 100 volts for 1 hour in the presence of 1×MES-SDS running buffer (InVitrogen, Carlsbad, Calif.). Separated proteins were transferred to (PVDF) membranes (Bio-Rad Laboratories, Hercules, Calif.) at 42 volts for 2.5 hr using a Novex XCell II blotting apparatus in MES transfer buffer in the presence of NuPAGE antioxidant. Transfer of the proteins to the polyvinylidene difluoride (PVDF) membrane was confirmed by staining with Ponceau S (Sigma, St. Louis, Mo.). The blots were blocked in 5% non-fat dry milk in TBS, washed twice for 10 min each with TBS containing 0.1% Tween-20 and incubated for 2 hr at RT with primary antibody diluted in TBS containing 0.5% milk.
# (§5) The following antibodies were used in the immunoblots: DR4, DR5 and cytochrome c (Imgenex, San Diego, Calif.), BID (BioSource International, Camarillo, Calif.), caspases-8, -9, and Akt (Cell Signaling Technology, Beverely, Mass.), caspase-3 (BD Pharmingen, San Diego, Calif.) Iκβ and XIAP (Cell Signaling Technology, Beverly, Mass.), cFLIP (StressGen Biotechnology Corp, Victoria, Canada), actin (Sigma Chemical Co., St. Louis, Mo.) and Cox II (Molecular Probes, Eugene, Oreg.). Immunoreactive bands were visualized using ECL detection system (Amersham, Pharmacia Biotech, Arlington Heights, Ill.) and signals were developed after exposure to X-ray film (X-Omat films, Eastman Kodak Company, Rochester, N.Y.).
# (§6) For separation of mitochondrial and cytosolic fractions, cells were trypsinized, centrifuged at 600 g for 10 min at 4° C., washed twice in ice-cold PBS and re-suspended in buffer A (20 mM HEPES-KOH, pH 7.2, 10 mM KCl, 1.5 mM MgC12, 1 mM sodium-EDTA, 1 mM sodium-EGTA, 250 mM sucrose and protease inhibitor cocktail). Cells were homogenized on ice with a glass Dounce homogenizer (30 strokes) and were centrifuged at 750 g for 5 min at 4° C. […]
# LNCaP cells [2] = test: as above; conditions: LNCaP; for DR4 levels / expression of DR5: FIG. 2A
# Description: as §1, §2, §3, §4, §5, §6
Molecule,M30 activity (in words) (LNCaP cells [1]),DR4 levels (LNCaP C4-2 cells),activation of procaspase-8 (LNCaP C4-2 cells; FIG. 3B),induction of caspase-3 (LNCaP C4-2 cells; FIG. 3D),DR4 levels (LNCaP cells [2]),expression of DR5 (LNCaP cells [2]),activation of procaspase-8 (LNCaP cells [2]; FIG. 3A),activation of caspase-3 (LNCaP cells [2]; FIG. 3C),"activation of caspase-7 in TRAIL-treated cells after pre-treatment with Mifepristone (LNCaP cells [2]; Mifepristone pre-treatment, then TRAIL, FIG. 3C)",cytochrome c levels in cytosol (LNCaP C4-2 cells; FIG. 5B),"phosphorylated Akt (LNCaP cells [2]; 15 min, FIG. 8)",truncated Bid (tBid) (LNCaP cells [2]; FIG. 3A),activation of caspase-7 (LNCaP cells [2]; FIG. 3C),cytochrome c levels in cytosol (LNCaP cells [2]; FIG. 5A)
CC#C[C@]1(O)CC[C@H]2[C@@H]3CCC4=CC(=O)CCC4=C3[C@@H](c3ccc(N(C)C)cc3)C[C@@]21C [Mifepristone],lower M30 activity,did not show significant changes,small increase in the activation of caspase-8,nor is it effective in inducing caspase-3,did not show significant changes,significant increase,small increase in the activation of caspase-8,activates caspase-3,activated caspase-7 by 4 hr,,,,,
"Tumor necrosis factor α—Related Apoptosis Inducing Ligand (protein, UniProt P50591 1-281, looked up, 281 amino acid type II transmembrane protein of the tumor necrosis factor α family; purchased from Biomol) Tumor necrosis factor ligand …: MAMMEVQGGPSLGQTCVLIVIFTVLLQSLCVAVTYVYFTNELKQMQDKYSKSGIACFLKEDDSYWDPNDEESMNSPCWQVKWQLRQLVRKMILRTSEETISTVQEKQQNISPLVRERGPQRVAAHITGTRGRSNTLSSPNSKNEKALGRKINSWESSRSGHSFLSNLHLRNGELVIHEKGFYYIYSQTYFRFQEEIKENTKNDKQMVQYIYKYTSYPDPILLMKSARNSCWSKDAEYGLYSIYQGGIFELKENDRIFVSVTNEHLIDMDHEASFFGAFLVG",,did not show significant changes,,,did not show significant changes,did not increase significantly,decrease in the 57 KDa procaspase-8 protein as early as 2 hr,yielded cleaved 17 KDa caspase-3 product by 2 hr,,increased cytochrome c levels in cytosol within 15 min,slightly decreased phosphorylated Akt,tBid was noted by 2 hr,activated caspase-7 by 20 hr,increased cytochrome c levels in cytosol within 15 min

# Source: patent publication US20020115613A1, “Treatment of prostate cancer” (priority 2001, published 2002)
